Consider one substance from patent publication US20160136234A1.

Some targets named below: CLK3 (h) (human) (UniProt P49761); Abl (H396P) (h) (human) (UniProt P00519); DAPK2 (h) (human) (UniProt Q9UIK4); TrkA (h) (human) (UniProt P04629); WNK3 (h) (human) (UniProt Q9BYP7); SRPK1 (h) (human) (UniProt Q96SB4); PDGFRβ (h) (human) (UniProt P09619); PKG1α (h) (human) (UniProt Q13976); PKBα (h) (human) (UniProt P31749); STK33 (h) (human) (UniProt Q9BYT3); Mnk2 (h) (human) (UniProt Q9HBH9); EphB2 (h) (human) (UniProt P29323); MINK (h) (human) (UniProt Q8N4C8).

Assay in all cases: cell-based or functional assay
For the next assay, the target named is T1, Rse (h) (human) (UniProt Q06418).
T1 sequence (looked up): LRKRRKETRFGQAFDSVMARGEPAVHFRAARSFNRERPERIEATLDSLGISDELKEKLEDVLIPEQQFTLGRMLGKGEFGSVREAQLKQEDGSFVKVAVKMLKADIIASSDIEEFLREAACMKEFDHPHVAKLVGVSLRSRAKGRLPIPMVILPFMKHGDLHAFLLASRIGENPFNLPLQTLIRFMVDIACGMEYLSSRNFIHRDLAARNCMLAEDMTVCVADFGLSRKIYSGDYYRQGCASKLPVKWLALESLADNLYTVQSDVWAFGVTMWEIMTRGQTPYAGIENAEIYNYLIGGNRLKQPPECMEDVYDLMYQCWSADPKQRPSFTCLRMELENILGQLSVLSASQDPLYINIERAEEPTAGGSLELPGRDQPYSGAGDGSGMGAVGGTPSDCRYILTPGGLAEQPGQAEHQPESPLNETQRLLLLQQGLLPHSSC

In the next assay the target is T2, TAO3 (h) (human) (UniProt Q9H2K8).
T2 sequence (looked up): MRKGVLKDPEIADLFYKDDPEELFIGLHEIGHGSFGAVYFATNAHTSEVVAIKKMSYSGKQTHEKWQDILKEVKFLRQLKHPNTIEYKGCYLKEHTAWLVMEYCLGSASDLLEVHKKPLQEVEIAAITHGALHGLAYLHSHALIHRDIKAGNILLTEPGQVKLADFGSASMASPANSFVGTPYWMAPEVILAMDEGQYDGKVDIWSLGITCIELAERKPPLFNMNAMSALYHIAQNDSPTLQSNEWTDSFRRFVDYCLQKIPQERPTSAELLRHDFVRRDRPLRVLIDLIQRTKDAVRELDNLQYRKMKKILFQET

The target in assay [1] is Calcium/Calmodulin-Dependent Protein Kinase I (human) (UniProt Q14012).
In the next assay the target is T3, TSSK2 (h) (human) (UniProt Q96PF2).
T3 sequence (looked up): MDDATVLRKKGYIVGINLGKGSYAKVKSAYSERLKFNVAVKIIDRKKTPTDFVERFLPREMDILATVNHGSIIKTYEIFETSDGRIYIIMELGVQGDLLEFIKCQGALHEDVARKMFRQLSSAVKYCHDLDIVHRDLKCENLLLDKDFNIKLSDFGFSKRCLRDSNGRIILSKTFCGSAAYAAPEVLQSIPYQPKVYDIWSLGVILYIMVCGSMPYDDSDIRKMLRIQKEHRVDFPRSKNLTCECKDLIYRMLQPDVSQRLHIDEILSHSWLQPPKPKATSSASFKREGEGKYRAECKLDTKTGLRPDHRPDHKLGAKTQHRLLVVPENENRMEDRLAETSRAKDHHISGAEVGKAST

A further assay has as its target T4, TAO2 (h) (human) (UniProt Q9UL54).
T4 sequence (looked up): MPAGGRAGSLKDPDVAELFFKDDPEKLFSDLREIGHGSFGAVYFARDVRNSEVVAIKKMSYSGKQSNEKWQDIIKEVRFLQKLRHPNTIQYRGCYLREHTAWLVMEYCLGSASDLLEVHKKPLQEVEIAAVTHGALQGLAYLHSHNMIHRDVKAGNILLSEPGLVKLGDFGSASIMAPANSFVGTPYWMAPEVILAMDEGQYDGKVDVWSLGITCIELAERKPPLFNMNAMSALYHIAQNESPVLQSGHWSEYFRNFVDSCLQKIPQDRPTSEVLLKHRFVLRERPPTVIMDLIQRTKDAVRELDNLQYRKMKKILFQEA

Another assay deals with T5, Ret (V804L) (h) (human) (UniProt P07949).
T5 sequence (looked up): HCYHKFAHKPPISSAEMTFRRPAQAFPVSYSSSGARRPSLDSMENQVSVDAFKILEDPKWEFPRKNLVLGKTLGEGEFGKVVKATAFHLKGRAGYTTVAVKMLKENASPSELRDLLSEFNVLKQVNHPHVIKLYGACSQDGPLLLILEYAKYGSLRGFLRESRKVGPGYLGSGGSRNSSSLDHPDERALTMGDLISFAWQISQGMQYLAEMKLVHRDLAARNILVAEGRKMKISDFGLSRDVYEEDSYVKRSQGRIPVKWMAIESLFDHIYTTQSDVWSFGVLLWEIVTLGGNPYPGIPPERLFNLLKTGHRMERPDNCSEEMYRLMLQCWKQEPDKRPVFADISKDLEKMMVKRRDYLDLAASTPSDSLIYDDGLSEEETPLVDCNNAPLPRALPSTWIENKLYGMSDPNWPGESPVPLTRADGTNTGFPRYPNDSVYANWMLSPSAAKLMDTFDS

Chain of Abl (H396P) (h) (human) (P00519 27-1130 H396P limits assumed): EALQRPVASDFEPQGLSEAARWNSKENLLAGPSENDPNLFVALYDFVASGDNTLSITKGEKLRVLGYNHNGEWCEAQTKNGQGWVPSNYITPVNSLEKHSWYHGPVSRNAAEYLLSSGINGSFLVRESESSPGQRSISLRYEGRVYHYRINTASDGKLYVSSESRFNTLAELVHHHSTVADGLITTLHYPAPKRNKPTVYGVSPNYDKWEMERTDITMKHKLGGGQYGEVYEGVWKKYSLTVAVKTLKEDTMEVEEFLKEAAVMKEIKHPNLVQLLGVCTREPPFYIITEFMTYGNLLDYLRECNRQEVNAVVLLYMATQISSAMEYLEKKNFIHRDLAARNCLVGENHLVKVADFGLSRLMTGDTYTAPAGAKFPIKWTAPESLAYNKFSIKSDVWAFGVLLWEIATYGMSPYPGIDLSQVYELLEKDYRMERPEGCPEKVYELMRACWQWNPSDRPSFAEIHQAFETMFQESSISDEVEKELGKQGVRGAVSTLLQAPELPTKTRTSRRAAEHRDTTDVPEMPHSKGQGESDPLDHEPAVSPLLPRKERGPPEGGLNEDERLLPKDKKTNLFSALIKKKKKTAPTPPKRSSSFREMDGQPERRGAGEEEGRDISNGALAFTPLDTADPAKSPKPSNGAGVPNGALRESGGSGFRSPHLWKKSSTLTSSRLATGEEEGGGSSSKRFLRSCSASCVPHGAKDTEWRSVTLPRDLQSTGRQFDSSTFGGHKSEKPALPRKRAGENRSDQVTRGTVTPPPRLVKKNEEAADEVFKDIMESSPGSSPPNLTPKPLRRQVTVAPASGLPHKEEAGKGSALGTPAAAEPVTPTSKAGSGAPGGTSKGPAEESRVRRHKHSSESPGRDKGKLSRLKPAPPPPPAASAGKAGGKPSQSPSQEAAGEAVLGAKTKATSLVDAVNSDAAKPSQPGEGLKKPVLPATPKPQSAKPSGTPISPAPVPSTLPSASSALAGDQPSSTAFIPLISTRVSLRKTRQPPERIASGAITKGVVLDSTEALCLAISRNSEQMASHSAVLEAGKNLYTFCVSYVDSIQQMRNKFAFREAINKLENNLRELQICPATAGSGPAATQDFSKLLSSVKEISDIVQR
Chain of PDGFRβ (h) (human) (P09619 557-1106 limits assumed): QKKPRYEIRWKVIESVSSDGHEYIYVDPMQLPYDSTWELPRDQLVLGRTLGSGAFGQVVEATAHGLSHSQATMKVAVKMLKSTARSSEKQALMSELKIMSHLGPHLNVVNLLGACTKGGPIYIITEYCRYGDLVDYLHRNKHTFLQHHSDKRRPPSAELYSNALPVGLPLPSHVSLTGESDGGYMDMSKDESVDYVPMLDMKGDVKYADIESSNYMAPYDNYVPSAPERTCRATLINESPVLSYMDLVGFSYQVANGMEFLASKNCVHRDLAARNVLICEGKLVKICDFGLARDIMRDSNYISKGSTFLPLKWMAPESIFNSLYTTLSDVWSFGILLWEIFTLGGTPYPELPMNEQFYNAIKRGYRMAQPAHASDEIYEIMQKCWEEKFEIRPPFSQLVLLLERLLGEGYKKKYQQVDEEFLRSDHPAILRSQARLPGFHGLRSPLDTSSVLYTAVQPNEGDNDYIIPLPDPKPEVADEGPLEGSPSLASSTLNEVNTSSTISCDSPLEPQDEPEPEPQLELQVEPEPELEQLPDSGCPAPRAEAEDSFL
Chain of EphB2 (h) (human) (P29323 565-986 limits assumed): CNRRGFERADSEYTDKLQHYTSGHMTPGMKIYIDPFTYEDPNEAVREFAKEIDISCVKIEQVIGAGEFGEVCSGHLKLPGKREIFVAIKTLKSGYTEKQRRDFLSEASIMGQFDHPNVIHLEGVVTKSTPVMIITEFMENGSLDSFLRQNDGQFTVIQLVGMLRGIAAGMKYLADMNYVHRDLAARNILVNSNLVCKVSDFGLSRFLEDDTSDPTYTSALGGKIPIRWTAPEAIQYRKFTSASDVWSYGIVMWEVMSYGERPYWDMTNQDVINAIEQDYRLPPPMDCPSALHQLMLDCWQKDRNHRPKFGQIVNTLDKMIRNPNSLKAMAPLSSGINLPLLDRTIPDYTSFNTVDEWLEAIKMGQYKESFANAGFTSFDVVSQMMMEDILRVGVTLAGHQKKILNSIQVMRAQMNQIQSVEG
Chain of PKBα (h) (human) (P31749 whole entry): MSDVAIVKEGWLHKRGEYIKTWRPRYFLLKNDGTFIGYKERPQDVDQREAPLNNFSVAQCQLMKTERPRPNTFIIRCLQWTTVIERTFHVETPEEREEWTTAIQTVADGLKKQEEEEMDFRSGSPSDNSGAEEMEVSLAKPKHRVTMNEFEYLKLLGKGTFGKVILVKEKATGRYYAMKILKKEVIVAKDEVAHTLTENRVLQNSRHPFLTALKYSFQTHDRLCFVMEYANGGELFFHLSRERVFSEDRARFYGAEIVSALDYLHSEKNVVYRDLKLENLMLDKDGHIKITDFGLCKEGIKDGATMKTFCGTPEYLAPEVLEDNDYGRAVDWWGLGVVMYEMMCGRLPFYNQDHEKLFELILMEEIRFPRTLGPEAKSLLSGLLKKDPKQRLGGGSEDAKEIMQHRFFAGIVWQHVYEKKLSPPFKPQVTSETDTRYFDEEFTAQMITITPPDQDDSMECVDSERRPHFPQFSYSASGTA

With MMI-0300 (peptide), the % activity at 100 µM in the assay with Rse (h) (human) came to 88%; in the assay with TAO3 (h) (human), 77%; with CLK3 (h) (human) it was 61%; with Abl (H396P) (h) (human), 101%; with DAPK2 (h) (human) it was 32%; with TrkA (h) (human), 25%. Besides, the % activity at 100 µM amounted to 77% in the assay with WNK3 (h) (human); 90% with SRPK1 (h) (human); 1% in assay [1]; 81% with PDGFRβ (h) (human); 64% in the assay with PKG1α (h) (human); 98% in the assay with TSSK2 (h) (human). For the same substance, the % activity at 100 µM in the assay with PKBα (h) (human) came to 57%; with TAO2 (h) (human), 70%; with Ret (V804L) (h) (human), 79%; in the assay with STK33 (h) (human), 45%; with Mnk2 (h) (human), 89%; in the assay with EphB2 (h) (human), 18%. For the same substance, the % activity at 100 µM with MINK (h) (human) is 48%.
